From PMC10321576, “Cyclic peptides target the aromatic cage of a PHD-finger reader domain to modulate epigenetic protein function†” (Chemical Science, 2023) come the findings set out here.

Assay [1] concerns the target T1, KDM7B PHD-finger (UniProt Q9UPP1-2 1-447). The assay can be described thus: AlphaScreen or HTRF; proximity assay of His-tagged protein and biotinylated H3(1-21)K4me3; displacement by titrated unlabelled peptide. The conditions noted are these: both partners purified.
The target in assay [2] is T1, KDM7B PHD-finger. Kind of assay: BLI; association and dissociation of the cyclic peptide (2-fold serial dilution) on the protein; curve fittings with a 1:1 binding model. The note with it: both partners purified.
The target in assay [3] is T1, KDM7B PHD-finger. Kind of assay: NMR titration; 1H-15N HSQC and 1H-NMR of isotopically labelled KDM7B PHD-finger, apo or with peptide. The conditions noted are these: both partners purified.
The target of assay [4] is T1, KDM7B PHD-finger. Kind of assay: BLI + AlphaScreen or HTRF; SAR of OC9 variants on KDM7B PHD-finger by affinity (BLI) and displacement (AS) assays; the sentence does not tell which gave the result. The conditions noted are these: both partners purified.
In assay [5] the target is T2, KDM7B (PHF8, JHDM1F) dual domain (PHD-JmjC) (UniProt Q9UPP1-2 1-447). Kind of assay: cell-based or functional assay.
Assay [6] concerns the target T1, KDM7B PHD-finger. Kind of assay: ITC; binding curves fitted with a 1:1 binding model. The note with it: both partners purified.
Assay [7] has as its target T2, KDM7B (PHF8, JHDM1F) dual domain …. The description is as above. The note with it: both partners purified.
Assay [8] shares this target. The assay can be described thus: BLI; association and dissociation of the cyclic peptide (2-fold serial dilution) on the protein; curve fittings with a 1:1 binding model. The conditions noted are these: both partners purified.

Bridge positions count the residues as written; N and C are the ends. Square brackets hold non-standard residues; d marks the D form. Ends that are not written are not given here. Lys(Me3) = C[N+](C)(C)CCCC[C@H](N)C(=O)O A value given as a limit tells only on which side of the number the result lay.

T2 sequence (Q9UPP1 37-483): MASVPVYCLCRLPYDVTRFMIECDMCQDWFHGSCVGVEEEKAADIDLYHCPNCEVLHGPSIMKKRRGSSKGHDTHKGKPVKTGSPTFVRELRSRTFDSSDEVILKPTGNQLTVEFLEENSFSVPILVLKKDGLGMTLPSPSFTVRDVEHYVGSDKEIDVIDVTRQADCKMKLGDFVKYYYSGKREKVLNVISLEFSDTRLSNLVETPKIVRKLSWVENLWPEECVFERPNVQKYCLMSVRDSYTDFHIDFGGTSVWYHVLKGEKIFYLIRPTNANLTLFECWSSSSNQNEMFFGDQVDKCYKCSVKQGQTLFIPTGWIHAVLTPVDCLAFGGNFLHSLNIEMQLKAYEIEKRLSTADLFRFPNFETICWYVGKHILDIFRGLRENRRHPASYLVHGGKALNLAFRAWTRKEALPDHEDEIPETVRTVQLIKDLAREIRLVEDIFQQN
T1 sequence (Q9UPP1 37-483): as above

B1: OC9 V10Kme3 (peptide)
chain: YYLTHPYPS[Lys(Me3)]FRTC
modifications: ends and bridges not checked
The molecule B1 returned an IC50 with KDM7B PHD-finger [1] of 316 nM. In the assay with KDM7B PHD-finger [2], this molecule registered a Kd of 533 nM.

B2: OC9 V10DV (peptide)
chain: YYLTHPYPS[dV]FRTC
modifications: ends and bridges not checked
As for B2, the Kd with KDM7B PHD-finger [3] is 503000 ± 1000 nM; with KDM7B PHD-finger [2], above 10000 nM.

B3: OC9 with trans-4-fluoroproline at P6 (peptide)
chain: YYLTH[trans‑4‑fluoroproline]YPSVFRTC
modifications: ends and bridges not checked
B3: in the assay with KDM7B PHD-finger [4], the “fold higher affinity against the cis-fluoro variant at P6” value was above 10 fold.

B4: OC9, de novo cyclic peptide from mRNA display (peptide)
chain: {CH2CO}-YYLTHPYPSVFRTC
modifications: thioether N-14
As for B4, in assay [5], the “IC50 of inhibition of KDM7B demethylation of H3(1–21)K4me3K9me2, MALDI-TOF MS based assay” value stood at 1190 nM. For the same molecule, in assay [5], the “IC50 of inhibition of KDM7B demethylation of H3(1–21)K9me2, MALDI-TOF MS based assay” value worked out at 510 nM. The Kd amounted to 12 nM with KDM7B PHD-finger [6], 11 nM in assay [7], 4 nM with KDM7B PHD-finger [2] and 6 nM in assay [8]. Also, the IC50 with KDM7B PHD-finger [1] came out at 32 nM. In addition, the “dissociative half-life t1/2” value is 8.1 min with KDM7B PHD-finger [2] and 2.8 min in assay [8].
